Results on three substances are retold here after PMC8168016.

A value given as a limit tells only on which side of the number the result lay.

The target in test [1] is AncSR1-LBD fused to the CTE of AncSR2-LBD. Briefly: SEC-MALS. (In general: In gel filtration, larger molecules generally elute earlier.)
Test [2] deals with AncSR1-LBD 184E (dimerization-interface mutant with a non-historical charge-repulsion mutation). The experiment in a line: native MS.
Test [3] deals with AncSR1-LBD L180F/A181Y/M185K (dimerization-interface mutant with three historical substitutions). The experiment in a line: native MS.

Broadly, the stoichiometry N is the number of molecules, sites or subunits per partner or assembly. In test [1], “AncSR1-LBD fused to the CTE of AncSR2-LBD (domain or fragment)” displayed a stoichiometry N of 2.
“AncSR1-LBD 184E (dimerization-interface mutant with a non-historical charge-repulsion mutation) (domain or fragment)” gave a fold increase of Kd against AncSR1-LBD in test [2] of more than 20 fold.
As to “AncSR1-LBD L180F/A181Y/M185K (dimerization-interface mutant with three historical substitutions) (domain or fragment)”, the fold increase of Kd against AncSR1-LBD in test [3] is more than 20 fold.
